Laboratory results reported in the supplement of paper PMC9233669.
Fewer inactive variants are shown than the library holds.

How the values were obtained:
biotinyl-Val-oxazolone = assay: self-aminoacylation, catalytic enhancement (BVO) (fold over background); higher = more active; k-Seq, kA / k0A0; sequences stand for … in GGGAAUGGAUCCACAUCUACGAAUUC…UUCACUGCAGACUUGACGAAGCUG
Method in brief: (§1)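 Working in 50 μL HEPES/NaCl/KCl/MgCl2/CaCl2 buffer with 5% acetonitrile at pH 6.9–7.0, mutagenized RNA pools (0.43 μM; 21-nt variable region) were reacted with 2–1250 μM of each biotinyl-aminoacyl-oxazolone for 90 minutes at room temperature. Streptavidin capture followed, with quantification by triplicate qPCR and Illumina sequencing. Catalytic enhancement is reported as median kA over the uncatalyzed rate, the low-activity peak of a bimodal Gaussian fit to the data.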

biotinyl-Leu-oxazolone = assay: self-aminoacylation, catalytic enhancement (BLO) (fold over background); higher = more active; k-Seq, kA / k0A0; sequences stand for … in GGGAAUGGAUCCACAUCUACGAAUUC…UUCACUGCAGACUUGACGAAGCUG
Method in brief: as §1

biotinyl-Met-oxazolone = assay: self-aminoacylation, catalytic enhancement (BMO) (fold over background); higher = more active; k-Seq, kA / k0A0; sequences stand for … in GGGAAUGGAUCCACAUCUACGAAUUC…UUCACUGCAGACUUGACGAAGCUG
Method in brief: as §1

biotinyl-Ile-oxazolone = assay: self-aminoacylation, catalytic enhancement (BIO) (fold over background); higher = more active; k-Seq, kA / k0A0; sequences stand for … in GGGAAUGGAUCCACAUCUACGAAUUC…UUCACUGCAGACUUGACGAAGCUG
Method in brief: as §1

biotinyl-Phe-oxazolone = assay: self-aminoacylation, catalytic enhancement (BFO) (fold over background); higher = more active; k-Seq, kA / k0A0; sequences stand for … in GGGAAUGGAUCCACAUCUACGAAUUC…UUCACUGCAGACUUGACGAAGCUG
Method in brief: as §1

biotinyl-Trp-oxazolone = assay: self-aminoacylation, catalytic enhancement (BWO) (fold over background); higher = more active; k-Seq, kA / k0A0; sequences stand for … in GGGAAUGGAUCCACAUCUACGAAUUC…UUCACUGCAGACUUGACGAAGCUG
Method in brief: as §1

Sequence | self-aminoacylation (biotinyl-Val-oxazolone) | self-aminoacylation (biotinyl-Leu-oxazolone) | self-aminoacylation (biotinyl-Met-oxazolone) | self-aminoacylation (biotinyl-Ile-oxazolone) | self-aminoacylation (biotinyl-Phe-oxazolone) | self-aminoacylation (biotinyl-Trp-oxazolone)
AUCACCCUGGUCGUCGAGUGA [Fam2.1 aminoacylation ribozyme variant] | 1.31 | 2.67 | 1.39 | 1.24 | 5.78 | 1.41
CUACUUCACACAAUCGUUCUG [Fam1A.1 aminoacylation ribozyme variant] | 0.61 | 0.484 | 0.477 | 0.649 | 0.66 | 0.392
CCACACUUAAAGCGAUCGGUC [Fam1B.1 aminoacylation ribozyme variant] | 1.18 | 1 | 0.963 | 1.23 | 0.793 | 0.934
CUUCACCUGGGUCAUCGGGUG [Fam2.2 aminoacylation ribozyme variant] | 5 | 4.82 | 4.02 | 2.43 | 25 | 4.89
AAGUCUGCUAAUAGUCACAAG [Fam3.1 aminoacylation ribozyme variant] | 1.25 | 1.3 | 1.95 | 1.24 | 12.6 | 3.73
AUUGCCCUGGCCAUCGAGUGA [Fam2.1 aminoacylation ribozyme variant] | 2.74 | 4.96 | 3.8 | 2.48 | 25.2 | 4.87
AUUACCCUGGUCCUCAAGUGA [Fam2.1 aminoacylation ribozyme variant] | 2.02 | 2.29 | 2.16 | 1.64 | 7.45 | 3.02
AAAUUUGCUCAUAGUCGCAAG [Fam3.1 aminoacylation ribozyme variant] | 1.57 | 1.55 | 2.13 | 1.76 | 2.13 | 1.56
CCAAACUUCAAGCGAUCGGUC [Fam1B.1 aminoacylation ribozyme variant] | 1.35 | 1.32 | 1.11 | 1.1 | 1.09 | 1.25
AUUAACCUAGGUCGUCGGGUG [Fam2.2 aminoacylation ribozyme variant] | 1.42 | 2.01 | 1.7 | 1.38 | 3.08 | 1.42
AUUACCCUGUUCUUCGAGUGA [Fam2.1 aminoacylation ribozyme variant] | 3.41 | 5.58 | 5.6 | 3.05 | 23.3 | 7.83
AUUAAUCUGGUCAUCGAGUGA [Fam2.1 aminoacylation ribozyme variant] | 2.88 | 5.01 | 4.7 | 3.24 | 15.6 | 6.95
AUGCACCUAGAUCAUCGGGUG [Fam2.2 aminoacylation ribozyme variant] | 2.69 | 2.64 | 2.41 | 2.13 | 10.6 | 3.8
AUUAGCCUGGUCAUCCAGUGA [Fam2.1 aminoacylation ribozyme variant] | 2.62 | 4.36 | 4.07 | 2.69 | 10.8 | 5.21
AUCCACCUAGGUCAUCGGGCG [Fam2.2 aminoacylation ribozyme variant] | 3.87 | 5.85 | 5.3 | 4.91 | 20.9 | 3.38
CCACACUUGAAGCUAUCGGUC [Fam1B.1 aminoacylation ribozyme variant] | 1.02 | 0.775 | 0.885 | 1.07 | 0.482 | 0.759
AAGAUUGCUAAUAGUCGCUAG [Fam3.1 aminoacylation ribozyme variant] | 1.04 | 0.963 | 0.811 | 1.23 | 0.773 | 0.937
AAGUGUGCUAAUAGUCGCAAA [Fam3.1 aminoacylation ribozyme variant] | 1.41 | 1.52 | 2.07 | 1.79 | 2.76 | 1.88
AAAUUUGCAAAUAGUCGCAAG [Fam3.1 aminoacylation ribozyme variant] | 1.37 | 1.82 | 1.35 | 1.9 | 2.27 | 1.82
CCACACUCCCAGCAAUCGGUC [Fam1B.1 aminoacylation ribozyme variant] | 1.59 | 1.6 | 1.41 | 1.65 | 0.634 | 1.02
AUUCACCUAGGUCAUAGGGUG [Fam2.2 aminoacylation ribozyme variant] | 1.35 | 2.06 | 1.75 | 1.39 | 2.06 | 1.49
CUCGUUCAAACAAUCGGUCUG [Fam1A.1 aminoacylation ribozyme variant] | 1.07 | 1.31 | 0.961 | 1.09 | 10.2 | 6.95
CAACUUCAAACAAUCGGUUUG [Fam1A.1 aminoacylation ribozyme variant] | 1.62 | 2.6 | 1.71 | 1.51 | 87.8 | 44
AAGUCUGCUAAUAGUAGCAAG [Fam3.1 aminoacylation ribozyme variant] | 1.08 | 1.44 | 1.24 | 0.968 | 1.42 | 1.67
AUCCCCCUAGGUCAUCGGGUG [Fam2.2 aminoacylation ribozyme variant] | 8.74 | 17.6 | 13.3 | 8.62 | 132 | 12.6
CUACUUCAAACACUCGGUCUC [Fam1A.1 aminoacylation ribozyme variant] | 0.808 | 0.953 | 0.794 | 0.998 | 0.739 | 0.9

Sequence | self-aminoacylation (biotinyl-Val-oxazolone) | self-aminoacylation (biotinyl-Leu-oxazolone) | self-aminoacylation (biotinyl-Met-oxazolone) | self-aminoacylation (biotinyl-Ile-oxazolone) | self-aminoacylation (biotinyl-Phe-oxazolone) | self-aminoacylation (biotinyl-Trp-oxazolone)
AUCACCCUGGUCAUCGAGUAA [Fam2.1 aminoacylation ribozyme variant] | 2.21 | 3.44 | 3.93 | 2 | 6.38 | 2.89
CUUCACUUAGGUCAUCGGGUG [Fam2.2 aminoacylation ribozyme variant] | 2.8 | 5.55 | 4.3 | 2.82 | 23.4 | 5.12
AUUGCCCUGGUCCUCGAGUGA [Fam2.1 aminoacylation ribozyme variant] | 2.05 | 3.42 | 3.5 | 1.94 | 23.4 | 3.66
ACGUUUGCUCAUAGUCGCAAG [Fam3.1 aminoacylation ribozyme variant] | 1.91 | 2.49 | 1.88 | 1.89 | 2.58 | 3.57
CGACUUCAAACAAUCAGUCUG [Fam1A.1 aminoacylation ribozyme variant] | 0.893 | 1.27 | 1.01 | 0.938 | 28.2 | 10.2
CCACAAUUCAAGAAAUCGGUC [Fam1B.1 aminoacylation ribozyme variant] | 0.906 | 0.866 | 0.78 | 0.949 | 1.38 | 1.41
CUACUUCAAACAAUCGUUCGG [Fam1A.1 aminoacylation ribozyme variant] | 0.623 | 0.637 | 0.641 | 0.787 | 0.675 | 0.473
AAUACCCUGGUCAUCGAGGGA [Fam2.1 aminoacylation ribozyme variant] | 1.94 | 1.58 | 1.18 | 1.51 | 1.13 | 1.85
CAACUUAAAACAAUCGGUCUG [Fam1A.1 aminoacylation ribozyme variant] | 1.14 | 1.11 | 1.09 | 0.984 | 1.71 | 0.948
AUUACCGUGGUUAUCGAGUGA [Fam2.1 aminoacylation ribozyme variant] | 5.1 | 10.4 | 10.7 | 4.22 | 59.4 | 11.4
CCACAUUUCAAGCAAUCGGUU [Fam1B.1 aminoacylation ribozyme variant] | 1.71 | 1.56 | 1.62 | 1.59 | 1.25 | 1.2
AUUCACCUAGGCCAUCGGUUG [Fam2.2 aminoacylation ribozyme variant] | 1.04 | 1.32 | 1.05 | 1.08 | 8.73 | 0.695
CCACGCUUCAAGCAAUCGGUG [Fam1B.1 aminoacylation ribozyme variant] | 2.41 | 5.09 | 3.73 | 2.49 | 5.52 | 4.43
AUUCGCCUGGUCAUCGAGUGA [Fam2.1 aminoacylation ribozyme variant] | 3.17 | 4.99 | 4.4 | 3.01 | 16.6 | 6.48
AUUCAUCUAGGUCCUCGGGUG [Fam2.2 aminoacylation ribozyme variant] | 3.9 | 8.62 | 5.21 | 4 | 49.6 | 5.66
CCACACUUCAAGCUACCGGUC [Fam1B.1 aminoacylation ribozyme variant] | 1.3 | 1.2 | 0.931 | 1.23 | 0.832 | 0.946
CAGUUUGCUAAUAGUAGCAAG [Fam3.1 aminoacylation ribozyme variant] | 1.04 | 1.5 | 1.58 | 1.26 | 2.46 | 1.65
CCACACUUCAAGCCAUCGGGC [Fam1B.1 aminoacylation ribozyme variant] | 3.22 | 4.06 | 1.85 | 2.49 | 1.42 | 2.1
AUUACUCUGGUCAUCGAAUGA [Fam2.1 aminoacylation ribozyme variant] | 1.09 | 1.3 | 1.45 | 1.19 | 0.918 | 0.832
CCUCACUUCAAGCAAUCGGCC [Fam1B.1 aminoacylation ribozyme variant] | 2.39 | 1.59 | 1.53 | 1.9 | 5.49 | 5.38
ACUACCCUGGUCAUCCAGUGA [Fam2.1 aminoacylation ribozyme variant] | 3.27 | 5.01 | 5.05 | 3.37 | 21.2 | 5.86
AUGCACCUAGGUCAUCGGUUG [Fam2.2 aminoacylation ribozyme variant] | 1.24 | 1.28 | 1.26 | 1.42 | 5.04 | 1.48
AUUCACCGCGGUCAUCGGGUG [Fam2.2 aminoacylation ribozyme variant] | 5.04 | 8.56 | 7.49 | 4.65 | 59.7 | 7.69
AGACUUCAAACAAUCGGUCUG [Fam1A.1 aminoacylation ribozyme variant] | 1.93 | 3.5 | 2.4 | 2.06 | 125 | 48.1
AUUACACUGGCCAUCGAGUGA [Fam2.1 aminoacylation ribozyme variant] | 3.07 | 6.8 | 6.45 | 3.13 | 15.9 | 5.64
